According to the nanobody polyreactivity screen of Harvey et al. (2022):

test: yeast display, Sf9 membrane polyspecificity reagent, FACS + sequencing; frameworks hold sequencing errors
Method in brief: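 Nanobodies came from a synthetic yeast display library in Saccharomyces cerevisiae BJ5465, induced with galactose for 36–48 hours and stained for 1 hour at 4 °C with 10% biotinylated, detergent-solubilized Sf9 membrane reagent. Cells were enriched on streptavidin microbeads and then FACS-sorted, with low and high (top ~1%) gates set on anti-HA fluorescence for expression and streptavidin fluorescence for reagent binding. Each polyreactivity label reflects the gate a clone came from. Genes were amplified by colony PCR, sequenced by MiSeq 2 × 250 and filtered by CDR length.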

Sequence	polyreactivity (PSR sort gate)
QFQLVESGGGLVQAGGSLRLSCAASGRILSIYAMGWYSQAPGKESEMVAGITGGGRTHSADSVKGRFTISRDNAKNTVYLQMYSLKPEDTAVYSCSSLWRYQYRSKLSYYYWGQGTQVTVSS	high polyreactivity
QFQLVESGGGLVQAGGSLRLSCAASGRILYPNTMGWYRQAPGKEREVVAAISGSGSRTYYADSVKGRFTISRDNAKNNVYLQMNSLKPEDTAVYYCADRGDGTVGVSSPGKRRHYYWGQGTQVTVSS	high polyreactivity
QFQLVESGGGLVQAGGSLRLSCAASGRIRDNARGWYRQAPGKERELVAAISSSGGSTYYADSVKGRFTISRDNAKNTVYLQMNSLKPEDTAVYYCNAVRTGKIFGSWGQGTQVTVSS	high polyreactivity
QFQLVESGGGLVQAGGSLRLSCAASGRIVGRNAMGWYRQAPGKERELVAAISGNGGSTYYADSVKGRFTISRDNAKINVYLQMNSLKPEDTAVYYCATKYFSRMDYWGKGTQVTVSS	high polyreactivity
QFQLVESGGGLVQAGGSLRLSCAASGRIYGYYALGWYRQAPGQERELVATITFGGGSTYYTDSVKGRFTISRDNAKNTVSLQMNSLKPEDTALYYCAADSGYLGIYGDEYSWGHGTQVTVSS	low polyreactivity
QFQLVESGGGLVQAGGSLRLSCAASGRSFNRNAMGWYRQAPGKERELVAAISRSGTRTYYADSVKGRFTISRDNAKNTVYLQMNSLKPEDTAVYYCNALRVDGGDYWGQGTQVTVSS	high polyreactivity
QFQLVESGGGLVQAGGSLRLSCAASGRTFASNAMGWYRQAPGKERELVADITWDGGRTYYADSVKGRFTISRDNAKNTVYLQMNSLKPEDTAVYYCAARDTFPRRYGYWGQGTQVTVSS	high polyreactivity
QFQLVESGGGLVQAGGSLRLSCAASGRTFGFNAMGWYIQAPGKERELVAAISGSGGRTYYADSVKGRFTISRDKPKNTVYLQMNSLKPEDTAVYYCAAGARRGGSGYLGQGTQVTVSS	high polyreactivity
QFQLVESGGGLVQAGGSLRLSCAASGRTFKVYAMGWYRQAPGKERELVAAITGGGSTNYADSEKGRFTISRDNAKNTVYLQMNRLKAEDTAVYYGNARYYYRLVKWSRFSSYDYWGQGTQVTVSS	low polyreactivity
QFQLVESGGGLVQAGGSLRLSCAASGRTFSRTAMGWYRQAPGKERELVAAITKGGGSTYYADSVKGRFTISRDNAKNTVYLQMNSLKPEDTAVYYCAAYKPSTRRYDYWGQGTQVTVSS	high polyreactivity
QFQLVESGGGLVQAGGSLRLSCAASGRTFWYYDMGWYRQAPGKERELFATITSGGSTNYADSVKGRFTISRDNAKNTVYLQMNSLKPEDTAVYYCAAARWRWQLARDDYWGQGTQVTLSS	high polyreactivity
QFQLVESGGGLVQAGGSLRLSCAASGSIFYGYAMGWYRQAPGKERELVAAITSSNGSTYYADSVKGRFTISRDNEKNTVYLQMNSLKPEDTAVYYCAADVHGSYYIKPNVWYDYWGQGTQVTVSS	low polyreactivity
QFQLVESGGGLVQAGGSLRLSCAASGSIFYGYTMGWYRQEPGKERELLAAIRKSGGSTNYADSVKGRFTISRDNAKNTVYLQMNSLKPEDTAVYYCSASYYRGRGYYWGQGTQVTVSS	high polyreactivity
QFQLVESGGGLVQAGGSLRLSCAASGSTFAFYAMGRYRQAPGKERELVPAINLGGGSTYYAASVKGRFTISRDNAKNTVYLQMNSLKPEDTAVYYCAADFWTISWPVFDTYEYWGQGTQVTVSS	low polyreactivity
QFQLVESGGGLVQAGGSLRLSCAASGSTFIRYAMGWYRQAPGKERELVAAISRSGGNTYYADSVKGRFTISRDKAKNTVYLQMNSLKPEDTAVYYCNKDRQQALNYWGQGTQVNVSS	high polyreactivity
QFQLVESGGGLVQAGGSLRLSCAASGSTFITNAMGCYRQAPGKERELVASITRGAGSTYYADSVKGRITISRDNAKNTVYLQMNSLKPEDTAVYYCRLAPRYRKGGYWGQGTQVTVSS	high polyreactivity
QFQLVESGGGLVQAGGSLRLSCAASGSTFIYYTMGWYRQAPGKERELVAAIPSSGGSTYYADSVKGRFTISRDNAKNTVYFQMNSLKPEDTAVYYCAADGTYIKFAKLYRRYDYWGQGTQVTVSS	low polyreactivity
QFQLVESGGGLVQAGGSLRLSCAASGSTFLLYAMGWYRQAPGKEREFVASISGDGSSNYADSVKGRFTISRDNAKITVYLQMNSLKPEDTAVYYCAAVLLDPDSTLESGGNFDYWGQGTQVTVSS	low polyreactivity
QFQLVESGGGLVQAGGSLRLSCAASGSTFVFYAMGWYRQAPGKQRELVATISTGGSTYADSVKGRFTISRDNAKNTVYLQMNSLKPEDTAVYYCAADSLFGHYDYSGQGTQVTVSS	low polyreactivity
QFQLVESGGGLVQAGGSLRLSCAASVLTFSAYAMGWYRQAPGKEREFVAAITDSDGSTYYADYVKGRFTISRDNEKNTVYLQMNSLKPEDTAVYYCAASGSWYYGYWSGGYDYWGQGTQVTVSS	low polyreactivity
QFQLVESGGGLVQAGGSLRLSCAATGSIIGANAMGWYRQAPGKERELVAAISTRGGRTYYADSVKGRFTISRDNAKNTVYLQMNSLKPEDTAVYYCATSGGRPYKYEYWGQGTQVTVSS	high polyreactivity
